{"source": "patent US20260035463A1", "about": "(MINGHUI PHARMACEUTICAL HANGZHOU, published 2026)", "target": "T1, recombinant human PD-1 protein (human, UniProt Q15116 25-167, limits assumed)", "T1 construct": "The construct is not described; also called human recombinant PD-1", "T1 sequence (Q15116 25-167 limits assumed)": "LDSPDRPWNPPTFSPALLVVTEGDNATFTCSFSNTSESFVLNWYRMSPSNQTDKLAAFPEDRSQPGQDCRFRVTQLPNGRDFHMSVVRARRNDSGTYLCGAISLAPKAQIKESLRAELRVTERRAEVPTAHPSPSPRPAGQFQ", "experiment": "screening of the anti-PD-1 phage display library; method not detailed", "data": [{"binder": "Anti-PD-1 sdAb VHH (VHH, Obtained from an alpaca phage display library; also called anti-PD-1 VHH antibody; VHH single-domain antibody) VHH: QVQLVESGGGLVQPGGSLRLSCATSGSRRSIYAMGWFRQAPGKGLEFVAGIGWAYATTYYADSVKGRFTISRDNTKNTLYLQMNSLRAEDTAVYYCAADLDHSGFDYWGQGTLVTVSS", "values": [{"measurement": "binding result", "result": "binds"}]}]}
